According to PMC10657408, “c-di-GMP inhibits the DNA binding activity of H-NS in Salmonella” (Nature Communications, 2023):
Numbering of substitutions follows the chain as printed.

How the values were obtained:
[1] = tested on: H-NS (Salmonella enterica serovar Typhimurium (LT2 reference genome; SL1344 also used)); assay: ITC; settings: ITC: 25 mM Tris-HCl, 150 mM NaCl, pH 7.5, 20 C, 100 uM DNA into 10 uM protein; EMSA: 20 mM Tris-HCl, 4 mM MgCl2, 100 mM NaCl, 1 mM DTT, 1% NP-40, 10% glycerol …
[2] = tested on: H-NS K107A (Salmonella enterica serovar Typhimurium (LT2 reference genome; SL1344 also used)); assay: ITC; settings: ITC: 25 mM Tris-HCl, 150 mM NaCl, pH 7.5, 20 C, 100 uM DNA into 10 uM protein; EMSA: 20 mM Tris-HCl, 4 mM MgCl2, 100 mM NaCl, 1 mM DTT, 1% NP-40, 10% glycerol …
[3] = molecular target: T1, H-NS (Salmonella enterica serovar Typhimurium (LT2 reference genome; SL1344 also used)) (UniProt P0A1S2); assay: ITC; settings: ITC: 25 mM Tris-HCl, 150 mM NaCl, pH 7.5, 20 C, 100 uM DNA into 10 uM protein; EMSA: 20 mM Tris-HCl, 4 mM MgCl2, 100 mM NaCl, 1 mM DTT, 1% NP-40, 10% glycerol …
T1 sequence: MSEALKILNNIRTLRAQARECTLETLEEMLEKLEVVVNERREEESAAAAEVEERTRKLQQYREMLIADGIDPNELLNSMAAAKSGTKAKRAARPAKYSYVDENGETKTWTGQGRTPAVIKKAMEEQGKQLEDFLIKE

[4] = molecular target: T2, H-NS K107A K107A (Salmonella enterica serovar Typhimurium (LT2 reference genome; SL1344 also used)) (UniProt P0A1S2); assay: ITC; settings: ITC: 25 mM Tris-HCl, 150 mM NaCl, pH 7.5, 20 C, 100 uM DNA into 10 uM protein; EMSA: 20 mM Tris-HCl, 4 mM MgCl2, 100 mM NaCl, 1 mM DTT, 1% NP-40, 10% glycerol …
T2 sequence: T1 sequence with K107A

[5] = molecular target: T1, H-NS (Salmonella enterica serovar Typhimurium (LT2 reference genome; SL1344 also used)); assay: EMSA; settings: ITC: 25 mM Tris-HCl, 150 mM NaCl, pH 7.5, 20 C, 100 uM DNA into 10 uM protein; EMSA: 20 mM Tris-HCl, 4 mM MgCl2, 100 mM NaCl, 1 mM DTT, 1% NP-40, 10% glycerol …
[6] = molecular target: T2, H-NS K107A K107A (Salmonella enterica serovar Typhimurium (LT2 reference genome; SL1344 also used)); assay: EMSA; settings: ITC: 25 mM Tris-HCl, 150 mM NaCl, pH 7.5, 20 C, 100 uM DNA into 10 uM protein; EMSA: 20 mM Tris-HCl, 4 mM MgCl2, 100 mM NaCl, 1 mM DTT, 1% NP-40, 10% glycerol …
[7] = molecular target: T3, StpA (Salmonella enterica, UniProt P0A1S4, F98Y); assay: Kd measurement (ITC, Supplementary Fig. […]b); assay type: binding
T3 sequence (P0A1S4 1-133 F98Y): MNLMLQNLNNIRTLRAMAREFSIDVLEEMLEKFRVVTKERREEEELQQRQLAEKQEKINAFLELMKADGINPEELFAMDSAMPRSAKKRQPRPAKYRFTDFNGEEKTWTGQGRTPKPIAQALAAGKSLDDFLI

[8] = molecular target: T4, H-NS (Salmonella enterica, UniProt A0A0H3NBY9); assay: ITC ([…] stoichiometry); also UV-crosslinking competition and EMSA inhibition of DNA binding
T4 construct: gene hns; full-length, tag-free

[9] = molecular target: StpA (Salmonella enterica, UniProt P0A1S4); assay: Kd measurement (ITC, Supplementary Fig. […]b); assay type: binding
[10] = molecular target: T5, H-NS T115A T115A (Salmonella enterica serovar Typhimurium (LT2 reference genome; SL1344 also used)) (UniProt P0A1S2); assay: ITC; settings: ITC: 25 mM Tris-HCl, 150 mM NaCl, pH 7.5, 20 C, 100 uM DNA into 10 uM protein; EMSA: 20 mM Tris-HCl, 4 mM MgCl2, 100 mM NaCl, 1 mM DTT, 1% NP-40, 10% glycerol …
T5 sequence: T1 sequence with T115A

Compound | Kd [1] [nM] | Kd [2] [nM] | Kd [3] [nM] | Kd [4] [nM] | binding [5] | binding [6] | also measured
PvgrG | 460 | 380 |  |  |  |  | 
ATGTTTCATGGATTTCCCTTGAATTACACACACCCGGTTTCGGCATCCTGTCGGCTCCGTTTGAATTATTATCGACATAGCATGTCAGAAAAGTTATCTCTGCATCCTGTAAAGATAGATATCGCAGATTAATTAGTTTTCTGTTTCTCCCCTGAGTATCAGACGCAGTAATTAATCTTTGCGAATATGACATTTCGTCACGGTAATAAATTAAACATTTCGCTAAATAAAAAATAGCCG (double strand) [PfimA] |  |  | 360 | 430 | binds | binds | 
Nc1nc2c(ncn2[C@@H]2O[C@@H]3CO[P@](=O)(O)O[C@H]4[C@@H](O)[C@H](n5cnc6c(=O)[nH]c(N)nc65)O[C@@H]4CO[P@](=O)(O)O[C@H]3[C@H]2O)c(=O)[nH]1 [c-di-GMP] |  |  |  |  |  |  | Kd [7]: 640 ± 90 nM; Kd [8]: 270 ± 40 nM; Kd [9]: 73000 ± 14000 nM
CAAAACTCATGGTAGTGACTCCTTTAATACCGGATTAAAATAAATAGACTCACCGTCAGGAAACAGTGCCCCGCACTTTATAATGCAACCAGCCTGTTATATTTAAATATTTACCAGAAGAACAGGGTATATTGCTGACAAGAGCCATGAAAATAAAAACACAAAAATTAGCACATAACATAAATACTGAATTACATAAATAAGGAAATGAACATAACAATA (double strand) [PvgrG] |  |  | 460 | 380 | binds | binds | binding [10]: binds more weakly
TTCCATGTGTTATGCCTTGTGACATAAAAATTCATAAAAATAATGCATCAATGCATATAAATATATAAACAATTCTTTATTGATAGCCTCGAAAAAATATCGAAACAAAACAATGATACAGATCAGGGACTAATTAGCAACTAAGCCGTTAATATTAAATAATCAATGAACAGCAAGATAAAAA (double strand) [PclpV] |  |  | 310 | 320 | binds | binds | binding [10]: binds more weakly
PyaiU | 290 |  |  |  |  |  | 
TAATCGATGGTGTTATCATTAGGAAGATAAATTTCTTCATATATAACCCAGTCGATGACTACAATTACTTTTTAATAAGATGGCGATGTAAAAACATCGTAACAGTTTATTTAATAAATAATTTTTCAAATTGTAAGTTTTTATGTCAATGCTGAAAATGTAATTGTGAATTTATCGGAAAATCCGAATGATAGAATCGCCTGTGACAAGGTATATGTAGACAGCATCCTGATATTGTA (double strand) [PssrAB] |  |  |  |  | binds |  | 
PclpV | 310 | 320 |  |  |  |  | 
PfimA | 360 | 430 |  |  |  |  | 
